# Test results as given in patent US20210252150A1.
# Where two headings read alike, the source gives them in different places.
# How the values were obtained:
# [1] = target: HA of A/black-headed gull/Sweden/4/1999 (H16) (influenza A virus (H16)); test: ELISA, recombinant HA
# [2] = target: HA of A/Solomon Islands/03/2006 (H1N1) (influenza A virus (H1N1)); test: ELISA, recombinant HA
# [3] = target: HA of A/shearwater/Western Australia/2576/1979 (H15N9) (influenza A virus (H15N9)); test: ELISA, recombinant HA
# [4] = target: HA of A/Fort Monthouth/1947 (H1N1) (influenza A virus (H1N1)); test: ELISA, recombinant HA
# [5] = target: HA of A/Indonesia/5/2005 (H5N1) (influenza A virus (H5N1)); test: ELISA, recombinant HA
# [6] = target: HA of A/Texas/36/1991 (H1N1) (influenza A virus (H1N1)); test: ELISA, recombinant HA
# [7] = target: HA of A/Vietnam/1203/2004 (H5N1) (influenza A virus (H5N1)); test: ELISA, recombinant HA
# [8] = target: HA of A/Taiwan/2/2013 (H6) (Influenza A virus A/Taiwan/2/2013 (H6)); test: ELISA, recombinant HA
# [9] = target: dimeric recombinant soluble FcγRIIIa (CD16a), V176 (UniProt P08637)
# [10] = target: HA of A/Solomon Islands/03/2006 (H1N1) (influenza A virus (H1N1)); test: ELISA
# [11] = target: HA of A/shearwater/Western Australia/2576/1979 (H15N9) (influenza A virus (H15N9)); test: ELISA
# [12] = target: HA of A/Switzerland/9715293/2013 (H3) (influenza A virus (H3)); test: ELISA
# [13] = target: HA of A/Netherlands/219/2003 (H7N7) (influenza A virus (H7N7)); test: ELISA
# [14] = target: HA of A/Shanghai/2/2013 (H7N9) (influenza A virus (H7N9)); test: ELISA
# [15] = target: HA of A/Texas/50/2012 (H3N2) (influenza A virus (H3N2)); test: ELISA
# [16] = target: HA of A/mallard duck/Astrakhan/263/1982 (H14N5) (influenza A virus (H14N5)); test: ELISA
# [17] = target: HA of A/Indonesia/5/2005 (H5N1) (influenza A virus (H5N1)); test: ELISA
# [18] = target: HA of A/Hong Kong/1073/99 (H9) (influenza A virus (H9)); test: ELISA
# [19] = target: HA of A/Texas/36/1991 (H1N1) (influenza A virus (H1N1)); test: ELISA
# [20] = target: HA of A/chicken/Germany/N/1948 (H10N7) (influenza A virus (H10N7)); test: ELISA, recombinant HA
# [21] = target: HA of A/Netherlands/219/2003 (H7N7) (influenza A virus (H7N7)); test: ELISA, recombinant HA
# [22] = target: HA of A/California/07/2004 (H3) (Influenza A virus A/California/07/2004 (H3)); test: ELISA, recombinant HA
# [23] = target: HA of A/duck/Memphis/546/1974 (H11) (Influenza A virus A/duck/Memphis/546/1974 (H11)); test: ELISA, recombinant HA
# [24] = target: HA of A/Shanghai/2/2013 (H7N9) (influenza A virus (H7N9)); test: ELISA, recombinant HA
# [25] = target: HA of A/Texas/50/2012 (H3N2) (influenza A virus (H3N2)); test: ELISA, recombinant HA
# [26] = target: HA of A/mallard duck/Astrakhan/263/1982 (H14N5) (influenza A virus (H14N5)); test: ELISA, recombinant HA
# [27] = target: HA of A/Hong Kong/1073/99 (H9) (influenza A virus (H9)); test: ELISA, recombinant HA
# [28] = target: HA of A/turkey/Ontario/6118/1967 (H8) (Influenza A virus A/turkey/Ontario/6118/1967 (H8)); test: ELISA, recombinant HA
# [29] = target: HA of A/gull/Maryland/704/1977 (H13) (influenza A virus (H13)); test: ELISA
# [30] = target: HA of A/black-headed gull/Sweden/4/1999 (H16) (influenza A virus (H16)); test: ELISA
# [31] = target: HA of A/Solomon Islands/03/2006 (H1N1) (influenza A virus (H1N1)); test: ELISA; remark: listed apart in the source
# [32] = target: HA of A/Switzerland/9715293/2013 (H3) (influenza A virus (H3)); test: ELISA; remark: listed apart in the source
# [33] = target: HA of A/New York/107/2003 (H7N2) (influenza A virus (H7N2)); test: ELISA
# [34] = target: HA of A/Shanghai/2/2013 (H7N9) (influenza A virus (H7N9)); test: ELISA; remark: listed apart in the source
# [35] = target: HA of A/Texas/50/2012 (H3N2) (influenza A virus (H3N2)); test: ELISA; remark: listed apart in the source
# [36] = target: HA of A/mallard duck/Astrakhan/263/1982 (H14N5) (influenza A virus (H14N5)); test: ELISA; remark: listed apart in the source
# [37] = target: HA of A/Indonesia/5/2005 (H5N1) (influenza A virus (H5N1)); test: ELISA; remark: listed apart in the source
# [38] = target: HA of A/Hong Kong/1073/99 (H9) (influenza A virus (H9)); test: ELISA; remark: listed apart in the source
# [39] = target: HA of A/Minnesota/11/10 (H3) (influenza A virus (H3)); test: ELISA
# [40] = target: HA of A/Texas/36/1991 (H1N1) (influenza A virus (H1N1)); test: ELISA; remark: listed apart in the source
# [41] = target: HA of A/Vietnam/1203/2004 (H5N1) (influenza A virus (H5N1)); test: ELISA
# [42] = target: HA of A/shearwater/Western Australia/2576/1979 (H15N9) (influenza A virus (H15N9)); test: ELISA, recombinant HA; remark: listed apart in the source
# [43] = target: HA of A/chicken/Germany/N/1948 (H10N7) (influenza A virus (H10N7)); test: ELISA, recombinant HA; remark: listed apart in the source
# [44] = target: HA of A/Netherlands/219/2003 (H7N7) (influenza A virus (H7N7)); test: ELISA, recombinant HA; remark: listed apart in the source
# [45] = target: HA of A/Fort Monthouth/1947 (H1N1) (influenza A virus (H1N1)); test: ELISA, recombinant HA; remark: listed apart in the source
# [46] = target: HA of A/Taiwan/2/2013 (H6) (Influenza A virus A/Taiwan/2/2013 (H6)); test: ELISA, recombinant HA; remark: listed apart in the source
# [47] = target: dimeric recombinant soluble FcγRIIIa (CD16a), V176 (UniProt P08637); remark: listed apart in the source
# Chain of dimeric recombinant soluble FcγRIIIa (CD16a), V176 (P08637 17-208 F176V limits assumed): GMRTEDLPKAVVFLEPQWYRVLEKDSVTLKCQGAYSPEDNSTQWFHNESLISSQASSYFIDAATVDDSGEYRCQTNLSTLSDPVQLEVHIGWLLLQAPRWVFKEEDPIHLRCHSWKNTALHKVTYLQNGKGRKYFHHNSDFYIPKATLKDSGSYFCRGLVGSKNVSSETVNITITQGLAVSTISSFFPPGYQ
substance,measurement,setting,value
CR6261 (antibody),EC50,[1],0.245 µg/mL
same,EC50,[2],0.013 µg/mL
same,EC50,[3],0.061 µg/mL
same,EC50,[4],0.043 µg/mL
same,EC50,[5],0.026 µg/mL
same,EC50,[6],0.025 µg/mL
same,EC50,[7],0.031 µg/mL
same,EC50,[8],0.048 µg/mL
FluA-20 (hybridoma-produced IgG) (antibody),EC50 (read off the curve),[9],0.3 µg/mL
same,EC50,[10],0.05 µg/mL
same,EC50,[11],0.08 µg/mL
same,EC50,[12],0.55 µg/mL
same,EC50,[13],0.05 µg/mL
same,EC50,[14],0.12 µg/mL
same,EC50,[15],0.09 µg/mL
same,EC50,[16],0.95 µg/mL
same,EC50,[17],6.05 µg/mL
same,EC50,[18],0.41 µg/mL
same,EC50,[19],0.05 µg/mL
same,EC50,[2],0.008 µg/mL
same,EC50,[3],0.007 µg/mL
same,EC50,[20],0.037 µg/mL
same,EC50,[21],0.006 µg/mL
same,EC50,[22],0.008 µg/mL
same,EC50,[23],0.072 µg/mL
same,EC50,[4],0.007 µg/mL
same,EC50,[24],0.012 µg/mL
same,EC50,[25],0.006 µg/mL
same,EC50,[26],0.007 µg/mL
same,EC50,[5],0.016 µg/mL
same,EC50,[27],0.007 µg/mL
same,EC50,[6],0.009 µg/mL
same,EC50,[7],0.142 µg/mL
same,EC50,[8],0.061 µg/mL
same,EC50,[28],0.005 µg/mL
same,EC50,[29],0.07 µg/mL
same,EC50,[30],> 10 µg/mL
same,EC50,[31],0.005 µg/mL
same,EC50,[32],0.019 µg/mL
same,EC50,[33],0.808 µg/mL
same,EC50,[34],0.066 µg/mL
same,EC50,[35],0.004 µg/mL
same,EC50,[36],0.013 µg/mL
same,EC50,[37],0.085 µg/mL
same,EC50,[38],0.009 µg/mL
same,EC50,[39],> 10 µg/mL
same,EC50,[40],0.004 µg/mL
same,EC50,[41],0.283 µg/mL
same,EC50,[42],0.015 µg/mL
same,EC50,[43],0.031 µg/mL
same,EC50,[44],0.029 µg/mL
same,EC50,[45],0.012 µg/mL
same,EC50,[46],0.147 µg/mL
same,EC50 (read off the curve),[47],0.3 µg/mL
